Laboratory results taken from the supplement of paper PMC9112550, “Optimization of the antimicrobial peptide Bac7 by deep mutational scanning” (BMC Biology, 2022).

System: Escherichia coli TOP10
Test: shrunken log2 fold change of peptide-encoding DNA abundance (4.5 h post-induction vs induction); higher = less antimicrobial activity (less host growth inhibition)
Details: time post-induction: 4.5 h; library: site-saturation at positions 5, 18, 19, 20
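Further: peptides expressed intracellularly from a pBAD plasmid library in pooled LB shake-flask culture, induced with 0.3% L-arabinose, DNA abundance read by NGS, three biological replicates, DESeq2 with apeglm shrinkage.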

| Sequence | shrunken log2 fold change |
| --- | --- |
| RRIRTRPPRLPRPRPRPRHTPRP | -0.16 |
| RRIRVRPPRLPRPRPRPPRYPRP | 0.317 |
| RRIRARPPRLPRPRPRPWFCPRP | 0.0743 |
| RRIRNRPPRLPRPRPRPLPHPRP | -0.387 |
| RRIRERPPRLPRPRPRPKWGPRP | -0.0917 |
| RRIRPRPPRLPRPRPRPQPPPRP | 0.509 |
| RRIRRRPPRLPRPRPRPHWQPRP | 0.28 |
| RRIRCRPPRLPRPRPRPFTQPRP | -0.559 |
| RRIRLRPPRLPRPRPRPVHMPRP | -0.0691 |
| RRIRKRPPRLPRPRPRPYQFPRP | -0.17 |
| RRIRTRPPRLPRPRPRPIDNPRP | -0.51 |
| RRIRKRPPRLPRPRPRPDLWPRP | 0.123 |
| RRIRGRPPRLPRPRPRPEGEPRP | 1.97 |
| RRIRWRPPRLPRPRPRPDHDPRP | 0.0812 |
| RRIRMRPPRLPRPRPRPLYGPRP | -0.281 |
| RRIRKRPPRLPRPRPRPAVFPRP | 0.271 |
| RRIRNRPPRLPRPRPRPSDSPRP | -0.0909 |
| RRIRRRPPRLPRPRPRPMNLPRP | 0.0545 |
| RRIRERPPRLPRPRPRPIYVPRP | -1.09 |
| RRIRHRPPRLPRPRPRPTMYPRP | 0.000437 |
| RRIRIRPPRLPRPRPRPIKTPRP | -0.0553 |
| RRIRSRPPRLPRPRPRPKVTPRP | -0.173 |
| RRIRCRPPRLPRPRPRPLPGPRP | 0.262 |
| RRIRKRPPRLPRPRPRPVAGPRP | 0.127 |
| RRIRRRPPRLPRPRPRPYQVPRP | -0.0648 |

| Sequence | shrunken log2 fold change |
| --- | --- |
| RRIRERPPRLPRPRPRPGMVPRP | 0.217 |
| RRIRMRPPRLPRPRPRPIVGPRP | 0.108 |
| RRIRHRPPRLPRPRPRPLMIPRP | -0.498 |
| RRIRGRPPRLPRPRPRPVQLPRP | 0.0748 |
| RRIRERPPRLPRPRPRPLPQPRP | -0.06 |
| RRIRARPPRLPRPRPRPWKYPRP | -0.408 |
| RRIRTRPPRLPRPRPRPVYAPRP | -0.249 |
| RRIRDRPPRLPRPRPRPVLQPRP | 0.0891 |
| RRIRRRPPRLPRPRPRPCVWPRP | 0.999 |
| RRIRQRPPRLPRPRPRPLDLPRP | -0.276 |
| RRIRARPPRLPRPRPRPKWRPRP | 0.176 |
| RRIRRRPPRLPRPRPRPVECPRP | -0.0238 |
| RRIRQRPPRLPRPRPRPTKKPRP | -0.0835 |
| RRIRARPPRLPRPRPRPIQLPRP | -0.0651 |
| RRIRRRPPRLPRPRPRPCSNPRP | -0.166 |
| RRIRVRPPRLPRPRPRPMGGPRP | 0.062 |
| RRIRCRPPRLPRPRPRPMQAPRP | 0.249 |
| RRIRMRPPRLPRPRPRPWADPRP | -0.108 |
| RRIRGRPPRLPRPRPRPLLCPRP | 1.17 |
| RRIRIRPPRLPRPRPRPCVLPRP | -0.145 |
| RRIRIRPPRLPRPRPRPVFHPRP | -0.936 |
| RRIRFRPPRLPRPRPRPTEWPRP | 0.00734 |
| RRIRPRPPRLPRPRPRPWGPPRP | 0.368 |
| RRIRERPPRLPRPRPRPNSFPRP | -0.249 |
| RRIRHRPPRLPRPRPRPQDYPRP | -0.101 |

| Sequence | shrunken log2 fold change |
| --- | --- |
| RRIRSRPPRLPRPRPRPQGTPRP | 0.0846 |
| RRIRARPPRLPRPRPRPSECPRP | 0.145 |
| RRIRFRPPRLPRPRPRPPFIPRP | -0.236 |
| RRIRVRPPRLPRPRPRPIFAPRP | 0.231 |
| RRIRQRPPRLPRPRPRPFSGPRP | -0.0802 |
| RRIRTRPPRLPRPRPRPFCMPRP | -0.24 |
| RRIRPRPPRLPRPRPRPCVDPRP | -0.149 |
| RRIRHRPPRLPRPRPRPWREPRP | -0.0297 |
| RRIRKRPPRLPRPRPRPEAAPRP | 1.8 |
| RRIRSRPPRLPRPRPRPFLTPRP | -0.437 |
| RRIRPRPPRLPRPRPRPGARPRP | 1.19 |
| RRIRYRPPRLPRPRPRPYGKPRP | -1.27 |
| RRIRIRPPRLPRPRPRPCAAPRP | -0.0041 |
| RRIRCRPPRLPRPRPRPSPIPRP | -0.32 |
| RRIRRRPPRLPRPRPRPKNCPRP | 0.0654 |
| RRIRPRPPRLPRPRPRPDPKPRP | 0.367 |
| RRIRHRPPRLPRPRPRPMFNPRP | -0.608 |
| RRIRPRPPRLPRPRPRPASQPRP | 0.0417 |
| RRIRCRPPRLPRPRPRPSHRPRP | -0.508 |
| RRIRMRPPRLPRPRPRPVFRPRP | -0.0467 |
| RRIRWRPPRLPRPRPRPHQEPRP | 0.0101 |
| RRIRERPPRLPRPRPRPKRHPRP | 0.0422 |
| RRIRPRPPRLPRPRPRPMPGPRP | -0.0627 |
| RRIRRRPPRLPRPRPRPPMDPRP | 0.385 |
| RRIRFRPPRLPRPRPRPGHPPRP | -0.0866 |

| Sequence | shrunken log2 fold change |
| --- | --- |
| RRIRVRPPRLPRPRPRPCYCPRP | -0.32 |
| RRIRSRPPRLPRPRPRPWKAPRP | -0.00809 |
| RRIRERPPRLPRPRPRPEPHPRP | -0.122 |
| RRIRMRPPRLPRPRPRPNYYPRP | -0.576 |
| RRIRVRPPRLPRPRPRPIETPRP | 0.0184 |
| RRIRTRPPRLPRPRPRPQFQPRP | 0.183 |
| RRIRCRPPRLPRPRPRPMKCPRP | -0.173 |
| RRIRTRPPRLPRPRPRPEGVPRP | 0.122 |
| RRIRMRPPRLPRPRPRPDRMPRP | 0.422 |
| RRIRMRPPRLPRPRPRPCDGPRP | 0.0158 |
| RRIRNRPPRLPRPRPRPTRMPRP | 0.245 |
| RRIRKRPPRLPRPRPRPHATPRP | 1.06 |
| RRIRFRPPRLPRPRPRPRCCPRP | 0.164 |
| RRIRCRPPRLPRPRPRPGPRPRP | 0.713 |
| RRIRLRPPRLPRPRPRPPAEPRP | 0.404 |
| RRIRTRPPRLPRPRPRPFDYPRP | -0.0205 |
| RRIRTRPPRLPRPRPRPSLWPRP | 0.277 |
| RRIRMRPPRLPRPRPRPFMTPRP | 0.0622 |
| RRIRRRPPRLPRPRPRPQLWPRP | 0.146 |
| RRIRYRPPRLPRPRPRPRTVPRP | -0.0278 |
| RRIRLRPPRLPRPRPRPQAGPRP | -0.0299 |
| RRIRKRPPRLPRPRPRPKCSPRP | 0.00677 |
| RRIRMRPPRLPRPRPRPWGKPRP | 0.0449 |
| RRIRSRPPRLPRPRPRPHLQPRP | 0.0575 |
| RRIRGRPPRLPRPRPRPNYAPRP | 0.0408 |

| Sequence | shrunken log2 fold change |
| --- | --- |
| RRIRCRPPRLPRPRPRPTTRPRP | 0.176 |
| RRIRVRPPRLPRPRPRPLYYPRP | -0.453 |
| RRIRMRPPRLPRPRPRPCVMPRP | 0.0536 |
| RRIRERPPRLPRPRPRPSRVPRP | 0.0314 |
| RRIRGRPPRLPRPRPRPWPQPRP | 0.498 |
| RRIRMRPPRLPRPRPRPTALPRP | 0.33 |
| RRIRMRPPRLPRPRPRPPLFPRP | 0.919 |
| RRIRQRPPRLPRPRPRPDPHPRP | -0.0406 |
| RRIRIRPPRLPRPRPRPFWCPRP | -0.014 |
| RRIRFRPPRLPRPRPRPKPPPRP | 1.35 |
| RRIRWRPPRLPRPRPRPREEPRP | 0.55 |
| RRIRMRPPRLPRPRPRPDPPPRP | 1.23 |
| RRIRQRPPRLPRPRPRPDVPPRP | 0.0169 |
| RRIRKRPPRLPRPRPRPDECPRP | -0.0821 |
| RRIRCRPPRLPRPRPRPLCVPRP | -0.481 |
| RRIRRRPPRLPRPRPRPYCGPRP | -0.379 |
| RRIRPRPPRLPRPRPRPHDTPRP | -0.272 |
| RRIRERPPRLPRPRPRPNCVPRP | -0.0533 |
| RRIRWRPPRLPRPRPRPMAFPRP | -0.0177 |
| RRIRQRPPRLPRPRPRPLGRPRP | -0.00354 |
| RRIRGRPPRLPRPRPRPNMNPRP | 0.255 |
| RRIRRRPPRLPRPRPRPDSQPRP | 0.157 |
| RRIRVRPPRLPRPRPRPIYTPRP | -0.279 |
| RRIRCRPPRLPRPRPRPFGHPRP | 0.0616 |
| RRIRSRPPRLPRPRPRPMFWPRP | 0.332 |
